T1: recombinant, soluble human ASGR-1 (human, UniProt P07306 62-291)
T1 construct: biotinylated in the binning assay; also called soluble huASGR-1; Soluble ASGR-1 (Amgen)
T1 sequence: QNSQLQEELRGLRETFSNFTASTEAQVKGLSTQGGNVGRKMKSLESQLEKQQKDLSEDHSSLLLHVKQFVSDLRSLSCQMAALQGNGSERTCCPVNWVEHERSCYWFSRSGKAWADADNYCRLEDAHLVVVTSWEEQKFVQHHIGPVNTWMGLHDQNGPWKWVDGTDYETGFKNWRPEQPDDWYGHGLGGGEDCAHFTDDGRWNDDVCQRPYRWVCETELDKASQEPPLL


Assays:
[1] = target: T1, recombinant, soluble human ASGR-1; assay: Octet BLI dissociation, pH 5.6 plus calcium
How it was run: (§1)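 Antibodies were captured on anti-human Fc biosensors, and soluble ASGR-1 (6 ug/ml) was associated for 2 min in Tris buffer containing 1 mM CaCl2 at pH 7.4, followed by 10 min dissociation under each test condition. The signal at the end of association was set as 100%. Percent ASGR-1 still bound after 1 min of dissociation was compared with the pH 7.4 plus calcium control, and >10% extra dissociation was scored as sensitive.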

[2] = target: T1, recombinant, soluble human ASGR-1; assay: Octet BLI dissociation, pH 7.4 minus calcium
How it was run: as §1

[3] = target: T1, recombinant, soluble human ASGR-1; assay: Octet BLI dissociation, pH 5.6 minus calcium
How it was run: as §1

Binder	% Change Compared to pH 7.4 + Calcium [1]	% Change Compared to pH 7.4 + Calcium [2]	% Change Compared to pH 7.4 + Calcium [3]
62H10 (antibody, V domains shown, hybridoma mAb) VH: EVQLVESGGGLVKPGGSLRLSCAASGFTFSSYSMNWVRQAPGKGLEWVSSISSSSSYIYYADSVKGRFTISRDNAKNSLYLQMNSLRAEDTAVYYCARGGSRGFDPWGQGTLVTVSS VL: DIQMTQSPSSLSASVGDRVTITCRASQSITSYLNWYQQKPGKVPKLLISTASSLQSGVPSRFSGSGSGTDFTLTISSLQPEDFATYYCQQSHSFPFTFGPGTNVDFK	-2%	13%	14%
60G2 (antibody, V domains shown, hybridoma mAb) VH: QVQLVESGGGVVQPGRSLRLSCAASGFTFSSYGMHWVRQAPGKGLEWVAVIWYDGSNKYYADSVKGRFTISRDNSKNTLYLQMNSLRAEDTAVYYCARRYSRSWTGGMDVWGQGTTVTVSS VL: DIVMTQTPLSLSVTPGQSASISCKSSQSLLHSEGKTYLYWYLQKPGQPPQLLIYEVSNRISGVPDRFSGSGSGTDFTLKISRVEAEDVGVYYCMQSIQLPLTFGGGTKVEIK	7%	36%	31%
173C11 (antibody, V domains shown, hybridoma mAb) VH: QVQLVESGGGVVQPGRSLRLSCAASGFTFSSYGIHWVRQAPGKGLEWVALIFYDGSNKYYADSVKGRFTISRDNSKNTLYLHMSSLRAEDTAVYYCARRYSSSWSGGMDVWGQGTTVTVSS VL: DIVMTQTPLSLSVTPGQPASISCKSSQSLLHSEGKTYLYWYLQKPGQPPQLLIYEVSHRFSGVPDRFSGSGSGTDFTLKISRVEAEDVGVYYCMQSIQLLTFGGGTKVEIK	0%	17%	29%
148H10 (antibody, V domains shown, hybridoma mAb) VH: QVQLVESGGGVVQPGRSLRLSCAASGFTFSSYGMHWVRQAPGKGLEWVAVIWYDGSNKYYGDSVKGRFTISRDNSKNTLYLQMNSLRAEDTAVYYCARRYSSSWSGGMDVWGQGTTVTVSS VL: DIVMTQTPLSLSVTPGQPASISCKSSQSLLHSEGKTYLYWYLQKPGQPPQLLIYEVSYRVSGVPDRFSGSGSGTDFTLKISRVEAEDVGVYYCMQSIQLPLTFGGGTKVEIK	10%	45%	47%
47C1 (antibody, V domains shown, hybridoma mAb) VH: QVQLVESGGGVVQPGRSLRLSCAASGFTFSDYGMHWVRQTPGKGLEWVAVIWYDGSNKYYADSVKGRFTISRDNSKNTLFLQMNSLRDEDTAVYYCARRYSRSWVGGMDVWGQGTTVTVSS VL: DIVMTQTPLSLSVTPGQPASISCTSSQSLLHSEGKTYLYWYLQKPGQPPQLLIYEVSNRFSGVPDRFSGSGSGTDFTLKISRVEAEDVGVFYCMQSIQLPWTFGQGTKVEIK	-1%	13%	10%
73G1 (antibody, V domains shown, hybridoma mAb) VH: QVQLVESGGGVVQPGRSLRLSCAGTGFTFSYYGMHWVRQAPGKGLEWVAVTTYDGSNKYYADSVKGRFTSSRDNSKNTLYLQMNSLRAEDTAVYHCARETGTWAFDIWGQGTMVTVSL VL: QTVVTQEPSFSVSPGGTVTLTCGLSSGSVSTSYYPSWYQQTPGQAPRTLIYNTNTRSSGVPDRFSGSILGNKAALTITGAQADDESDYYCVLYMGSAIWVFGGGTKLTVL	33%	100%	62%
184E7 (antibody, V domains shown, hybridoma mAb) VH: QVQLVQSGAEVKTPGASVKVSCRASGYTFTSYNMHWVRQVPGQGLEWMGWINPNNGGSNYTQKFQGRVTMTRDTSISTAYMELSRLRSDDTAVYYCARKFGDWGQGTLVTVSS VL: DIQMTQSPSSRSASIGERVTITCRASQGISNYLAWIQQKPGTAPKSLIYAASSLQSGVSSRFSGSGFGTDFTITISSVQREDFATYYCQQYNGYPFTFGHGTKVDIK	-9%	1%	-3%
208A2 (antibody, V domains shown, hybridoma mAb) VH: QVQLQESGPGLVKPSETLSLNCTVSGGSIRSYYWSWIRQPAGKGLEWIGRIYTSGSTDYNPSLKSRITMSVDTSKNQFSLKLSSVTAADTAVYYCARGFGDWDYWGQGTLVTVSS VL: DIQMTQSPSSLSASVGDRVTITCRTSQGIRNDLGWYQQQPGKTPKRLIYAASSLLSGVPSRFSGSRSGTDFTLTISSLQPEDFATYYCLQYNSYPPTFGQGTRLEIK	-10%	-4%	-5%
210G10 (antibody, V domains shown, hybridoma mAb) VH: QVQLQESGPGLVKPSETLSLNCTVSGGSIRSYYWSWIRQPAGKGLEWIGRIYTSGSTDYNPSLKSRITMSVDTSKNQFSLKLSSVTAADTAVYYCARGFGDWDYWGQGTLVTVSS VL: DIQMTQSPSSLSASVGDRVTITFRTSQGIRNDLGWYQQQPGKTPKRMIYAASSLFSGVPSRFSGSRSGTDFTLTISSLQPEDFATYYCLQYNSYPPTFGQGTRLEIK	-10%	-3%	-5%
4B1 (antibody, V domains shown, hybridoma mAb) VH: QVQLQESGPGLVKPSETLSLTCSVSGDSISSYSWSWIRQPAGKGLEWIGRIYTSGSTNYIPSLKSRITMSVDTSKKQFSLKLSSVTAADTAVYYCARDLKSSGCLFFDYWGQGTLVTVSS VL: DIQMTQSPSSLSASVGDRVTITCRASHTIRTYLNWYQQKPGKAPKLLIYAASSLQSGVPSRINGSGSGTDFTLTITNLQPEDFATYYCQQSYNISFTFGPGTKVDIK	-5%	6%	-2%

Second part, the binder after the results:

% Change Compared to pH 7.4 + Calcium [1]	% Change Compared to pH 7.4 + Calcium [2]	% Change Compared to pH 7.4 + Calcium [3]	Binder
7%	34%	61%	65D5 (antibody, V domains shown, hybridoma mAb) VH: QVQLVQSGAEVKKPGASVKVSCKASGYTFPSYGISWVRQAPGQGLEWMGWISAYSGNTNYAQKLQGRVTMTTDTSTSTAYMELRSLRSDDTAVYFCARGEAVAVFDPWGQGTLVTVSS VL: DIQMTQSPSSLSASVGDRVTITCRASQDINNYLAWFQQKPGKAPRSLIYAASSLHSGVPSQFSASGSGSDFTLTISSLQPEDFATYYCPLYKSYPLTFGPGTKVDIK
36%	81%	52%	66H11 (antibody, V domains shown, hybridoma mAb) VH: QVQLVQSGAEVKKPGASVKVSCKASGYTFATYGISWVRQAPGQGLEWMGWISAYNGNTNYAQKLQGRVTMTTDTSTSTAYMELRSLRSDDTAVYYCARGEAVAVFDPWGQGTLVTVSS VL: DIQMTQFPSSLFAFVGDRVTITCPASQGISNYLAWFQQKPGKAPKSLIYGAFNLHSGVPSKFSGSGFGTDFTLTINSLQPEDFANYYCQQYSCYPFTFGHGTKVDIK
-7%	1%	-1%	72G9 (antibody, V domains shown, hybridoma mAb) VH: EVQLVESGGGLVKPGGSLRLSCAASGFTFSSYSMNWVRQAPGKGLEWVSSISGSSSYIYYADSVKGRFTISRDNAKNSLYLQMNSLRAEDTAVYFCARGGSRGFDPWGQGTLVTVSS VL: DIQMTQSPSSLSASVGDRVTITCRASQSITSYLNWYQQKPGKAPKLLIYTASSLQSGVPSRFSGSGSGTDFTLTISSLQPEDFATYYCQQSHSFPFTFGPGTKVDIK
23%	72%	64%	49C1 (antibody, V domains shown, hybridoma mAb) VH: QVQLVESGGGVVQPGRSLRLSCTASGFTFSSYGMHWVRQAPGKGLEWVAVIWYDGSNKYYADSVKGRFTISRDNSKNTLYLQMNSLRAEDTAVYYCARRYSSSWSGGMDVWGQGTTVTVSS VL: DIVMTQTPLSLSVTPGQPASISCKSSQSLLHREGKTYLYWYLQKPGQAPQFLIFEVSHRFSGVPDRFSGSGSGTDFTLKISRVEAEDVGVYYCMQSIQIPITLGQGTRLEIK
0%	25%	45%	179C2 (antibody, V domains shown, hybridoma mAb) VH: QVQLVESGGGVVQPGRSLRLSCAASGFTFSSYGMHWVRQAPGKGLEWVALIFYDGSNKYYADSVKGRFTISRDNSKNTLFLQMNSLRAEDTAVYYCARRYSGSWSGGMDVWGQGTTVTVSS VL: DIVMTQTPLSLSVTPGQPASISCKSSQSLLHSEGKTYLYWYLQKPGQPPQLLIYEVSHRFSGVPDRFSGSGSGTDFTLKISRVEAEDVGVYYCMQSIQVLTFGGGTKVEIK
-3%	14%	12%	60C12 (antibody, V domains shown, hybridoma mAb) VH: QVQLVESGGGVVQPGRSLRLSCAASGFTFSSYGMHWVRQAPGKGLEWVAVIWYDGSNKYYVDSVKGRFTISRDNSKNTLYLQMNSLRAEDTAVYYCARRYSRSWTGGMDVWGQGTTVTVSS VL: DIVMTQTPLSLSVTPGQPASISCKSSQSLLHSEGKTYLYWYLQKPGQPPQFLIYEVSNRFSGVPDRFSGSGSGTDFTLKISRVEAEDVGIYYCMQSIKYPLTFGGGTKVEIK
-7%	-1%	-3%	194A4 (antibody, V domains shown, hybridoma mAb) VH: QVQLVQSGTEVKKPGASLKVSCKASGYTFTVYYLNWVRQAPGQGLEWMGWINPNSGGTNYAQKFQGRVTMTRDTSISTAYMELSRLRSDDTAVYYCARGYDILTGWGQGTLVTVSS VL: EIVLTQSPGTLSLSPGERATLSCRASRGVSNIYLAWYQQKPGQAPRLLIYGASNRATGIPDRFSGSGSGTDFTLTISRLEPEDFAVYYCQHNDYSMFTFGPGTKVDIK

Reference: patent US20190248902A1 (published 2019)
